{"source": "the supplement of paper PMC5998384", "key": {"HeLa Kyoto [1]": {"test_system": "HeLa Kyoto", "test": "thermal stability score vs G1/S (z-score of summed log2 fold changes over temperatures); higher = more thermally stable than in G1/S"}, "HeLa Kyoto [2]": {"test_system": "HeLa Kyoto", "test": "melting temperature (median over replicates), in situ; higher = more thermally stable"}, "HeLa Kyoto [3]": {"test_system": "HeLa Kyoto", "test": "solubility change mitosis vs G1/S (difference of NP-40 vs SDS log2 ratios) (log2 ratio difference); higher = more soluble in mitosis"}, "HeLa Kyoto [4]": {"test_system": "HeLa Kyoto", "test": "solubility in G1/S (NP-40 vs SDS abundance) (log2 ratio); higher = more soluble", "details": "cell cycle stage: G1/S"}, "[5]": {"details": "cell cycle stage: early G1 (4.5 h after nocodazole release)"}}}
{"sequence": "MADNLPTEFDVVIIGTGLPESILAAACSRSGQRVLHIDSRSYYGGNWASFSFSGLLSWLKEYQQNNDIGEESTVVWQDLIHETEEAITLRKKDETIQHTEAFCYASQDMEDNVEEIGALQKNPSLGVSNTFTEVLDSALPEESQLSYFNSDEMPAKHTQKSDTEISLEVTDVEESVEKEKYCGDKTCMHTVSDKDGDKDESKSTVEDKADEPIRNRITYSQIVKEGRRFNIDLVSKLLYSQGLLIDLLIKSDVSRYVEFKNVTRILAFREGKVEQVPCSRADVFNSKELTMVEKRMLMKFLTFCLEYEQHPDEYQAFRQCSFSEYLKTKKLTPNLQHFVLHSIAMTSESSCTTIDGLNATKNFLQCLGRFGNTPFLFPLYGQGEIPQGFCRMCAVFGGIYCLRHKVQCFVVDKESGRCKAIIDHFGQRINAKYFIVEDSYLSEETCSNVQYKQISRAVLITDQSILKTDLDQQTSILIVPPAEPGACAVRVTELCSSTMTCMKDTYLVHLTCSSSKTAREDLESVVKKLFTPYTETEINEEELTKPRLLWALYFNMRDSSGISRSSYNGLPSNVYVCSGPDCGLGNEHAVKQAETLFQEIFPTEEFCPPPPNPEDIIFDGDDKQPEAPGTNNVVMAKLESSEESKNLESPEKHLQN [CHML]", "values": [{"measurement": "thermal stability score", "setting": "HeLa Kyoto [1]; [5]", "value": -0.83}, {"measurement": "thermal stability score", "setting": "HeLa Kyoto [1]; cell cycle stage: mitosis", "value": -1.67}, {"measurement": "melting temperature", "setting": "HeLa Kyoto [2]; cell cycle stage: G1/S", "value": 54, "unit": "°C"}, {"measurement": "melting temperature", "setting": "HeLa Kyoto [2]; cell cycle stage: mitosis", "value": 53.7, "unit": "°C"}, {"measurement": "solubility change mitosis (log2)", "setting": "HeLa Kyoto [3]", "value": -0.178}, {"measurement": "solubility in G1/S (log2)", "setting": "HeLa Kyoto [4]", "value": -0.076}]}
{"sequence": "MADPAAPTPAAPAPAQAPAPAPEAVPAPAAAPVPAPAPASDSASGPSSDSGPEAGSQRLLFSHDLVSGRYRGSVHFGLVRLIHGEDSDSEGEEEGRGSSGCSEAGGAGHEEGRASPLRRGYVRVQWYPEGVKQHVKETKLKLEDRSVVPRDVVRHMRSTDSQCGTVIDVNIDCAVKLIGTNCIIYPVNSKDLQHIWPFMYGDYIAYDCWLGKVYDLKNQIILKLSNGARCSMNTEDGAKLYDVCPHVSDSGLFFDDSYGFYPGQVLIGPAKIFSSVQWLSGVKPVLSTKSKFRVVVEEVQVVELKVTWITKSFCPGGTDSVSPPPSVITQENLGRVKRLGCFDHAQRQLGERCLYVFPAKVEPAKIAWECPEKNCAQGEGSMAKKVKRLLKKQVVRIMSCSPDTQCSRDHSMEDPDKKGESKTKSEAESASPEETPDGSASPVEMQDEGAEEPHEAGEQLPPFLLKEGRDDRLHSAEQDADDEAADDTDDTSSVTSSASSTTSSQSGSGTSRKKSIPLSIKNLKRKHKRKKNKITRDFKPGDRVAVEVVTTMTSADVMWQDGSVECNIRSNDLFPVHHLDNNEFCPGDFVVDKRVQSCPDPAVYGVVQSGDHIGRTCMVKWFKLRPSGDDVELIGEEEDVSVYDIADHPDFRFRTTDIVIRIGNTEDGAPHKEDEPSVGQVARVDVSSKVEVVWADNSKTIILPQHLYNIESEIEESDYDSVEGSTSGASSDEWEDDSDSWETDNGLVEDEHPKIEEPPIPPLEQPVAPEDKGVVISEEAATAAVQGAVAMAAPMAGLMEKAGKDGPPKSFRELKEAIKILESLKNMTVEQLLTGSPTSPTVEPEKPTREKKFLDDIKKLQENLKKTLDNVAIVEEEKMEAVPDVERKEDKPEGQSPVKAEWPSETPVLCQQCGGKPGVTFTSAKGEVFSVLEFAPSNHSFKKIEFQPPEAKKFFSTVRKEMALLATSLPEGIMVKTFEDRMDLFSALIKGPTRTPYEDGLYLFDIQLPNIYPAVPPHFCYLSQCSGRLNPNLYDNGKVCVSLLGTWIGKGTERWTSKSSLLQVLISIQGLILVNEPYYNEAGFDSDRGLQEGYENSRCYNEMALIRVVQSMTQLVRRPPEVFEQEIRQHFSTGGWRLVNRIESWLETHALLEKAQALPNGVPKASSSPEPPAVAELSDSGQQEPEDGGPAPGEASQGSDSEGGAQGLASASRDHTDQTSETAPDASVPPSVKPKKRRKSYRSFLPEKSGYPDIGFPLFPLSKGFIKSIRGVLTQFRAALLEAGMPECTEDK [UBE2O]", "values": [{"measurement": "thermal stability score", "setting": "HeLa Kyoto [1]; [5]", "value": -1.41}, {"measurement": "thermal stability score", "setting": "HeLa Kyoto [1]; cell cycle stage: mitosis", "value": -1.46}, {"measurement": "melting temperature", "setting": "HeLa Kyoto [2]; cell cycle stage: G1/S", "value": 51.7, "unit": "°C"}, {"measurement": "melting temperature", "setting": "HeLa Kyoto [2]; cell cycle stage: mitosis", "value": 51.1, "unit": "°C"}, {"measurement": "solubility change mitosis (log2)", "setting": "HeLa Kyoto [3]", "value": -0.0785}, {"measurement": "solubility in G1/S (log2)", "setting": "HeLa Kyoto [4]", "value": -0.0555}]}
{"sequence": "MADPEVCCFITKILCAHGGRMALDALLQEIALSEPQLCEVLQVAGPDRFVVLETGGEAGITRSVVATTRARVCRRKYCQRPCDNLHLCKLNLLGRCNYSQSERNLCKYSHEVLSEENFKVLKNHELSGLNKEELAVLLLQSDPFFMPEICKSYKGEGRQQICNQQPPCSRLHICDHFTRGNCRFPNCLRSHNLMDRKVLAIMREHGLNPDVVQNIQDICNSKHMQKNPPGPRAPSSHRRNMAYRARSKSRDRFFQGSQEFLASASASAERSCTPSPDQISHRASLEDAPVDDLTRKFTYLGSQDRARPPSGSSKATDLGGTSQAGTSQRFLENGSQEDLLHGNPGSTYLASNSTSAPNWKSLTSWTNDQGARRKTVFSPTLPAARSSLGSLQTPEAVTTRKGTGLLSSDYRIINGKSGTQDIQPGPLFNNNADGVATDITSTRSLNYKSTSSGHREISSPRIQDAGPASRDVQATGRIADDADPRVALVNDSLSDVTSTTSSRVDDHDSEEICLDHLCKGCPLNGSCSKVHFHLPYRWQMLIGKTWTDFEHMETIEKGYCNPGIHLCSVGSYTINFRVMSCDSFPIRRLSTPSSVTKPANSVFTTKWIWYWKNESGTWIQYGEEKDKRKNSNVDSSYLESLYQSCPRGVVPFQAGSRNYELSFQGMIQTNIASKTQKDVIRRPTFVPQWYVQQMKRGPDHQPAKTSSVSLTATFRPQEDFCFLSSKKYKLSEIHHLHPEYVRVSEHFKASMKNFKIEKIKKIENSELLDKFTWKKSQMKEEGKLLFYATSRAYVESICSNNFDSFLHETHENKYGKGIYFAKDAIYSHKNCPYDAKNVVMFVAQVLVGKFTEGNITYTSPPPQFDSCVDTRSNPSVFVIFQKDQVYPQYVIEYTEDKACVIS [ZC3HAV1]", "values": [{"measurement": "thermal stability score", "setting": "HeLa Kyoto [1]; [5]", "value": 1.07}, {"measurement": "thermal stability score", "setting": "HeLa Kyoto [1]; cell cycle stage: mitosis", "value": 1.97}, {"measurement": "melting temperature", "setting": "HeLa Kyoto [2]; cell cycle stage: G1/S", "value": 48.1, "unit": "°C"}, {"measurement": "melting temperature", "setting": "HeLa Kyoto [2]; cell cycle stage: mitosis", "value": 48.8, "unit": "°C"}, {"measurement": "solubility change mitosis (log2)", "setting": "HeLa Kyoto [3]", "value": 0.0381}, {"measurement": "solubility in G1/S (log2)", "setting": "HeLa Kyoto [4]", "value": -0.202}]}
{"sequence": "MADPRVRQIKIKTGVVKRLVKEKVMYEKEAKQQEEKIEKMRAEDGENYDIKKQAEILQESRMMIPDCQRRLEAAYLDLQRILENEKDLEEAEEYKEARLVLDSVKLEA [TBCA]", "values": [{"measurement": "thermal stability score", "setting": "HeLa Kyoto [1]; [5]", "value": -7.45}, {"measurement": "thermal stability score", "setting": "HeLa Kyoto [1]; cell cycle stage: mitosis", "value": -6.72}, {"measurement": "melting temperature", "setting": "HeLa Kyoto [2]; cell cycle stage: G1/S", "value": 55.4, "unit": "°C"}, {"measurement": "melting temperature", "setting": "HeLa Kyoto [2]; cell cycle stage: mitosis", "value": 53, "unit": "°C"}, {"measurement": "solubility change mitosis (log2)", "setting": "HeLa Kyoto [3]", "value": 0.298}, {"measurement": "solubility in G1/S (log2)", "setting": "HeLa Kyoto [4]", "value": 0.241}]}
{"sequence": "MADPWQECMDYAVTLARQAGEVVCEAIKNEMNVMLKSSPVDLVTATDQKVEKMLISSIKEKYPSHSFIGEESVAAGEKSILTDNPTWIIDPIDGTTNFVHRFPFVAVSIGFAVNKKIEFGVVYSCVEGKMYTARKGKGAFCNGQKLQVSQQEDITKSLLVTELGSSRTPETVRMVLSNMEKLFCIPVHGIRSVGTAAVNMCLVATGGADAYYEMGIHCWDVAGAGIIVTEAGGVLMDVTGGPFDLMSRRVIAANNRILAERIAKEIQVIPLQRDDED [IMPA1]", "values": [{"measurement": "thermal stability score", "setting": "HeLa Kyoto [1]; [5]", "value": -1.12}, {"measurement": "thermal stability score", "setting": "HeLa Kyoto [1]; cell cycle stage: mitosis", "value": -2.39}, {"measurement": "melting temperature", "setting": "HeLa Kyoto [2]; cell cycle stage: G1/S", "value": 59.9, "unit": "°C"}, {"measurement": "melting temperature", "setting": "HeLa Kyoto [2]; cell cycle stage: mitosis", "value": 61.1, "unit": "°C"}, {"measurement": "solubility change mitosis (log2)", "setting": "HeLa Kyoto [3]", "value": -0.19}, {"measurement": "solubility in G1/S (log2)", "setting": "HeLa Kyoto [4]", "value": 0.0966}]}
{"sequence": "MADSASESDTDGAGGNSSSSAAMQSSCSSTSGGGGGGGGGGGGGKSGGIVISPFRLEELTNRLASLQQENKVLKIELETYKLKCKALQEENRDLRKASVTIQARAEQEEEFISNTLFKKIQALQKEKETLAVNYEKEEEFLTNELSRKLMQLQHEKAELEQHLEQEQEFQVNKLMKKIKKLENDTISKQLTLEQLRREKIDLENTLEQEQEALVNRLWKRMDKLEAEKRILQEKLDQPVSAPPSPRDISMEIDSPENMMRHIRFLKNEVERLKKQLRAAQLQHSEKMAQYLEEERHMREENLRLQRKLQREMERREALCRQLSESESSLEMDDERYFNEMSAQGLRPRTVSSPIPYTPSPSSSRPISPGLSYASHTVGFTPPTSLTRAGMSYYNSPGLHVQHMGTSHGITRPSPRRSNSPDKFKRPTPPPSPNTQTPVQPPPPPPPPPMQPTVPSAATSQPTPSQHSAHPSSQP [CCDC6]", "values": [{"measurement": "thermal stability score", "setting": "HeLa Kyoto [1]; [5]", "value": -2.05}, {"measurement": "thermal stability score", "setting": "HeLa Kyoto [1]; cell cycle stage: mitosis", "value": 0.137}, {"measurement": "melting temperature", "setting": "HeLa Kyoto [2]; cell cycle stage: G1/S", "value": 53.5, "unit": "°C"}, {"measurement": "melting temperature", "setting": "HeLa Kyoto [2]; cell cycle stage: mitosis", "value": 53.6, "unit": "°C"}, {"measurement": "solubility change mitosis (log2)", "setting": "HeLa Kyoto [3]", "value": -0.174}, {"measurement": "solubility in G1/S (log2)", "setting": "HeLa Kyoto [4]", "value": 0.826}]}
{"sequence": "MADSGLLLKRGSCRSTWLRVRKARPQLILSRRPRRRLGSLRWCGRRRLRWRLLQAQASGVDWREGARQVSRAAAARRPNTATPSPIPSPTPASEPESEPELESASSCHRPLLIPPVRPVGPGRALLLLPVEQGFTFSGICRVTCLYGQVQVFGFTISQGQPAQDIFSVYTHSCLSIHALHYSQPEKSKKELKREARNLLKSHLNLDDRRWSMQNFSPQCSIVLLEHLKTATVNFITSYPGSSYIFVQESPTPQIKPEYLALRSVGIRREKKRKGLQLTESTLSALEELVNVSCEEVDGCPVILVCGSQDVGKSTFNRYLINHLLNSLPCVDYLECDLGQTEFTPPGCISLLNITEPVLGPPFTHLRTPQKMVYYGKPSCKNNYENYIDIVKYVFSAYKRESPLIVNTMGWVSDQGLLLLIDLIRLLSPSHVVQFRSDHSKYMPDLTPQYVDDMDGLYTKSKTKMRNRRFRLAAFADALEFADEEKESPVEFTGHKLIGVYTDFAFRITPRNRESHNKILRDLSILSYLSQLQPPMPKPLSPLHSLTPYQVPFNAVALRITHSDVAPTHILYAVNASWVGLCKIQDDVRGYTNGPILLAQTPICDCLGFGICRGIDMEKRLYHILTPVPPEELRTVNCLLVGAIAIPHCVLKCQRGIEGTVPYVTTDYNFKLPGASEKIGAREPEEAHKEKPYRRPKFCRKMK [NOL9]", "values": [{"measurement": "thermal stability score", "setting": "HeLa Kyoto [1]; [5]", "value": 1.99}, {"measurement": "thermal stability score", "setting": "HeLa Kyoto [1]; cell cycle stage: mitosis", "value": 1.53}, {"measurement": "melting temperature", "setting": "HeLa Kyoto [2]; cell cycle stage: mitosis", "value": 51.3, "unit": "°C"}, {"measurement": "solubility change mitosis (log2)", "setting": "HeLa Kyoto [3]", "value": 0.92}, {"measurement": "solubility in G1/S (log2)", "setting": "HeLa Kyoto [4]", "value": -1.82}]}
